Data: patent US20230012273A1 (Boehringer Ingelheim, published 2023)

T1: full-length cyno SIRPα (NP_001271679) on CHO-K1 cells, clone HC6 (cynomolgus monkey, UniProt A0A2K5VYQ9)
T1 construct: whole, on cells
T1 sequence: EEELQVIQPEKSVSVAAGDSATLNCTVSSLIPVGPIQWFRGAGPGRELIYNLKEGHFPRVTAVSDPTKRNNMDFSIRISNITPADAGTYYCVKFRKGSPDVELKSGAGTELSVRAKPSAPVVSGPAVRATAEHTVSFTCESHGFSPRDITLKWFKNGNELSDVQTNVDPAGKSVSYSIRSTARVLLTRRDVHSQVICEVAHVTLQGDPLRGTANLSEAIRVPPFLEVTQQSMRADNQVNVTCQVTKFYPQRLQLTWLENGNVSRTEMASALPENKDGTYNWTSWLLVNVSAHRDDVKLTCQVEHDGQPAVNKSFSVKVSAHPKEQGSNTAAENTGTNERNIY

T2: full-length cyno SIRPα (XP_015313155) on CHO-K1 cells, clone P3HD10 (cynomolgus monkey)
T2 chain: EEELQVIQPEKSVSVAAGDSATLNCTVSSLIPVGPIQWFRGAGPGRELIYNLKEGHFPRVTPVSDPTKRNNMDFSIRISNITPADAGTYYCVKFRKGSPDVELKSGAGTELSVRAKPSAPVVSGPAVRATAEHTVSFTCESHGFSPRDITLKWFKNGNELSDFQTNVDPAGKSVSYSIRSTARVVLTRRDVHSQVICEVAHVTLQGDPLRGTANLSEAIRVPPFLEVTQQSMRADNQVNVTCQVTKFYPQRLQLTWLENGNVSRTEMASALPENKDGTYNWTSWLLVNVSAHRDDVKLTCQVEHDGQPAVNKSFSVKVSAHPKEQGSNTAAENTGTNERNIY

T3: cynomolgus SIRPβ1 (XP_005568598) extracellular domain + His-tag (cynomolgus monkey)
T3 construct: SPR analyte; also called Cyno SIRPβ1 XP_005568598; cynoSIRPβ1; not shown: His-tag
T3 chain: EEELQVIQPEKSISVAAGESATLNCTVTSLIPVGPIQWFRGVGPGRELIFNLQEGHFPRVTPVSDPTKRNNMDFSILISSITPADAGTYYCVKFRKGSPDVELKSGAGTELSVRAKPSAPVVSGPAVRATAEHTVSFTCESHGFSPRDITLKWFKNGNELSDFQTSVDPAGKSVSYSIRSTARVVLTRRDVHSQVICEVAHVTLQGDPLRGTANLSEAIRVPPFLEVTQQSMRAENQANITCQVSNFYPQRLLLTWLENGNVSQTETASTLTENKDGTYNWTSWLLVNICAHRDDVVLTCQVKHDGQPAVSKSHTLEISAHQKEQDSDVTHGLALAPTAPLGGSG

T4: cynomolgus SIRPγ (XP_005568591) extracellular domain + His-tag (cynomolgus monkey, UniProt Q9P1W8 29-359 (human entry))
T4 construct: SPR analyte; also called Cyno SIRPγ XP_005568591; cynoSIRPγ; not shown: His-tag
T4 chain: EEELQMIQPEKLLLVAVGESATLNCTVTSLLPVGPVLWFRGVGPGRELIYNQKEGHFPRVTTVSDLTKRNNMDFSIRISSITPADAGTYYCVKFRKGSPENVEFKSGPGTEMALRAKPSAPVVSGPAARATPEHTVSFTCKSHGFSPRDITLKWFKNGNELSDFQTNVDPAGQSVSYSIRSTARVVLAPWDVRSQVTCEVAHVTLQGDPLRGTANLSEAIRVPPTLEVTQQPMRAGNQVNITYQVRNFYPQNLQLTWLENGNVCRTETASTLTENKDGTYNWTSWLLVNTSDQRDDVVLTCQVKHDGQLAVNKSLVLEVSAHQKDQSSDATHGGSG


Assays:
[1] = target: T1, full-length cyno SIRPα (NP_001271679) …; assay: flow cytometry, CHO-K1 cells
Procedure: (§1) Antibody binding to cells expressing cynomolgus (cyno) SIRPα was evaluated by flow cytometry. CHO-K1 cells expressing full-length cyno SIRPα; derived from protein sequence accession numbers (A) EGM-02252; (B) XP_015313155; or (C) NP_001271679, are blocked with donkey IgG and incubated on ice with increasing concentrations of antibodies for 60 minutes, washed and stained with AF647-conjugated donkey F(ab′)₂ anti-human IgG secondary reagent. Cells are washed, fixed, and analyzed by flow cytometry. Median fluorescent intensity is determined and used as a measure of antibody binding.

[2] = target: T2, full-length cyno SIRPα (XP_015313155) …; assay: flow cytometry, CHO-K1 cells
Procedure: as §1

[3] = target: T5, full-length human SIRPβL (NP_001129316.1) on cells (human, UniProt Q5TFQ8 30-398); assay: flow cytometry, U937 SIRPα KO cells
T5 construct: on U937 SIRPα KO cells and Expi-CHO cells; also called βL WT; SIRPβ1v3
T5 sequence (Q5TFQ8 30-398): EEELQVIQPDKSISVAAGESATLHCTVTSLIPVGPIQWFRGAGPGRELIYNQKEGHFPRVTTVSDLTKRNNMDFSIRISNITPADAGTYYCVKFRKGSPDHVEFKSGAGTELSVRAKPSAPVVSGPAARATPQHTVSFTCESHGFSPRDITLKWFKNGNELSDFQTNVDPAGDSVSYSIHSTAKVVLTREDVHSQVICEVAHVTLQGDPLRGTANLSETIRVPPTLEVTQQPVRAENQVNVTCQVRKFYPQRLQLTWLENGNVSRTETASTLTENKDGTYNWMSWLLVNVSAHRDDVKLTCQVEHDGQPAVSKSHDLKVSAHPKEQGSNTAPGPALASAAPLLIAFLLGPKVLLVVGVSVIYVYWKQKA
Summary of the method: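 SIRPα-knockout U937 cells expressing SIRPβ1 or SIRPβL were blocked with donkey IgG, then incubated on ice 60 minutes with increasing antibody concentrations. Bound antibody detected with AF647 anti-human IgG F(ab′)₂; median fluorescence intensity taken as binding.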

[4] = target: T3, cynomolgus SIRPβ1 (XP_005568598) …; assay: SPR
Summary of the method: (§2)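 Steps: chip deactivated with 1M ethanolamine HCl for 420 sec at 10 μl/min; anti-SIRPα antibody captured; two-fold serial dilutions of His-tagged SIRP extracellular domain injected 300 sec at 30 μl/min; dissociation monitored 600 sec. All in 1×HBS-EP+ running buffer.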

[5] = target: T4, cynomolgus SIRPγ (XP_005568591) …; assay: SPR
Summary of the method: as §2

[6] = target: T6, full-length human SIRPγ N→D on Expi-CHO cells (human, UniProt Q9P1W8 29-387); assay: flow cytometry, Expi-CHO cells expressing full-length human SIRPγ N→D
T6 construct: the entry already carries the change (PENV to PEDV)
T6 sequence (Q9P1W8 29-387 N129D): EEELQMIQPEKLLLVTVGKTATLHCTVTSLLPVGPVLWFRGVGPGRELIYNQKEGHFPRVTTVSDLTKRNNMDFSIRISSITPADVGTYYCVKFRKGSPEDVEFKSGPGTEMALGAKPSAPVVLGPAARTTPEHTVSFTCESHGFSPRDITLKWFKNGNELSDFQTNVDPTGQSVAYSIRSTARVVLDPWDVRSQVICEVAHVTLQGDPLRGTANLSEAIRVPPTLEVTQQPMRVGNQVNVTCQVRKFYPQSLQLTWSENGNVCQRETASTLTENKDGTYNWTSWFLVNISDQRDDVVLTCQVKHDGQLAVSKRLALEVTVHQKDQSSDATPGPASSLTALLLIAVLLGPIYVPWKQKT
Procedure: Expi-CHO parental cells are transduced with lentiviruses containing either full-length wild-type human SIRPγ ([…]) or full-length human SIRPγ with amino acid point mutations (Table 64) and sorted to achieve matching expression levels. These cells are blocked with donkey IgG and incubated on ice with increasing concentrations of antibodies for 60 minutes, washed and stained with AF647-conjugated donkey F(ab′)₂ anti-human IgG antibodies. Stained cells are washed, fixed, and analyzed by flow cytometry. Median fluorescent intensity is determined and used as a measure of antibody binding.

Binder	fold weaker EC50 than on clone H3A9 [1] [fold]	fold weaker EC50 than on clone H3A9 [2] [fold]	binding result [3]	binding result [4]	binding result [5]	binding result [6]
Antibody A (antibody, human IgG1, kappa, L234A L235A) heavy: not shown light: DIQMTQSPSSLSASVGDRVTITCRASQDINNYLAWFQQKPGKAPKSLIYTASSLHSGVPSKFSGSGSGTDFTLTISSLQPEDFATYYCQQYVSYPYTFGQGTKLEIKRTVAAPSVFIFPPSDEQLKSGTASVVCLLNNFYPREAKVQWKVDNALQSGNSQESVTEQDSKDSTYSLSSTLTLSKADYEKHKVYACEVTHQGLSSPVTKSFNRGEC	≤ 5	≤ 5	no binding	–	–	–
Antibody A10 (antibody, human IgG1, kappa, L234A L235A) heavy: not shown light: DIQMTQSPSSLSASVGDRVTITCRASQDINNYLAWFQQKPGKAPKSLIYTASSLHSGVPSKFSGSGSGTDFTLTISSLQPEDFATYYCQQYVSYPYTFGQGTKLEIKRTVAAPSVFIFPPSDEQLKSGTASVVCLLNNFYPREAKVQWKVDNALQSGNSQESVTEQDSKDSTYSLSSTLTLSKADYEKHKVYACEVTHQGLSSPVTKSFNRGEC	≤ 5	≤ 5	no binding	–	–	–
Antibody E (antibody, human IgG1, kappa, L234A L235A) heavy: not shown light: DIVMTQSPLSLPVTPGEPASISCKSSQSLLYSNGYNYLDWYLQRPGQSPQLLIYLGSNRASGVPDRFSGSGSGTDFTLKISRVEAEDVGVFYCMQALQTPLTFGGGTKVEIKRTVAAPSVFIFPPSDEQLKSGTASVVCLLNNFYPREAKVQWKVDNALQSGNSQESVTEQDSKDSTYSLSSTLTLSKADYEKHKVYACEVTHQGLSSPVTKSFNRGEC	–	–	–	no binding (tested: 1000 nM)	no binding (tested: 1000 nM)	no binding (tested: about 67 nM)
Antibody E22 (antibody, human IgG1, kappa, L234A L235A, V domains shown) VH: QVQLQESGPGLVKPSETLSLTCTVSGGSIRDYYWSWIRQPPGKGLEWIGFIYYNGRTFYQSSLKSRVTISLDTSKNQFSLKMTSVTAADTAVYYCARVRAYSGIGLDGTDVWGQGTTVTVSS VL: DIVMTQSPLSLPVTPGEPASISCRSSQSLLYSTGYTYLDWYLQRPGQSPQLLIYGGSSRASGVPDRFSGSGSGTDFTLKISRVEAEDVGVFYCGQALQTPLTFGQGTKVEIKR	–	–	–	no binding (tested: 1000 nM)	no binding (tested: 1000 nM)	no binding (tested: about 67 nM)
